# From article PMC11063069
# Target: His-tagged human CD47 protein (human) (UniProt Q08722)
# Test: pull-down
# Sequence of UniProt Q08722 (Q08722 19-139): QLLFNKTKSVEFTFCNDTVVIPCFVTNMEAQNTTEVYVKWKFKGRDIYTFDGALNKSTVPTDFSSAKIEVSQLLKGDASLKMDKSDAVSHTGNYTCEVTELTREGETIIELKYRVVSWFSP
substance,measurement,value
fibronectin-binding protein B (FnBP B) of S. aureus laboratory strain 8325-4 (from UniProt A0A0H2XKG3 37-940) (natural protein),percent of bacterial colonies precipitated in the pellets with recombinant hCD47,83.2%
